The results in this text go back to paper PMC9398005 (2021).

Holding throughout (assay): ITC
Background: In ITC the heat of successive injections is recorded.

Experiment [1] has as its target mouse Rbpj (53-474) WT (mouse, UniProt P31266 53-474).
For experiment [2], the target named is mouse Rbpj (53-474) K195E (mouse, UniProt P31266 53-474, K195E).
Experiment [3] addresses Drosophila Su(H) (98-523) E137V (Drosophila, UniProt P28159 98-523, E137V | R155T).
The target in experiment [4] is Drosophila Su(H) (98-523) K132M (Drosophila, UniProt P28159 98-523, K132M | R155T).
Sequence of Drosophila Su(H) (98-523) K132M (P28159 98-523 K132M/R155T/N281G): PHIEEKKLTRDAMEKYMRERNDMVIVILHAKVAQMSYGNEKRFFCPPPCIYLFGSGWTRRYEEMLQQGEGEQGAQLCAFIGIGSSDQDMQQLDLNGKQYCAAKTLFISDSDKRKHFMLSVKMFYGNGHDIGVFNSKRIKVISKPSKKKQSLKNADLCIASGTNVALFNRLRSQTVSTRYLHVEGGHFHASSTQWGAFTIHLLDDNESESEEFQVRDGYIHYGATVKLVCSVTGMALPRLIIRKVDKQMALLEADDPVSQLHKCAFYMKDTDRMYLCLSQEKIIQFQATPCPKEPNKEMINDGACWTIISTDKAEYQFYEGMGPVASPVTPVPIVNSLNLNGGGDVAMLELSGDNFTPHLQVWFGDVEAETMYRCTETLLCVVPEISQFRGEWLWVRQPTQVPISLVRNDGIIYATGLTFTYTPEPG

Sequence of mouse Rbpj (53-474) WT (P31266 53-474): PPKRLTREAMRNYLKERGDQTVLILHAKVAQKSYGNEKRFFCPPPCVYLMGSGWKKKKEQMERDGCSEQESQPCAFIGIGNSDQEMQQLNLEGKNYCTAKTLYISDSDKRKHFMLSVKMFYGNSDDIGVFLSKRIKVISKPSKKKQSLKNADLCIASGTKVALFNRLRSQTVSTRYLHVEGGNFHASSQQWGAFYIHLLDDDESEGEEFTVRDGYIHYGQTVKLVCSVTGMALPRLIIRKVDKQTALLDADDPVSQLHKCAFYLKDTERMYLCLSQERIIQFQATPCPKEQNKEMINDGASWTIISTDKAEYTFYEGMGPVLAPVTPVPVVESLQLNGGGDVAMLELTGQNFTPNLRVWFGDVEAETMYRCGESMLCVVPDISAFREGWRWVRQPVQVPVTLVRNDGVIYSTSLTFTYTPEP
Sequence of mouse Rbpj (53-474) K195E (P31266 53-474 K195E): as the sequence (P31266 53-474) above, with K143E counted along it
Sequence of Drosophila Su(H) (98-523) E137V (P28159 98-523 E137V/R155T/N281G): as the sequence (P28159 98-523 K132M/R155T/N281G) above, with M35K, E40V counted along it

B1: SHARP residues 2776-2833 (domain or fragment)
chain: RASANENSRFHPGSMPVIDDRPADAGSGAGLRVNTSEGVVLLSYSGQKTEGPQRISAK
One may read the Kd as the equilibrium constant for the complex coming apart. As to B1, the Kd in experiment [1] amounted to 4 nM. The molecule VLLSRKRRRQHGQLWFPEGFKVSEASKK [Notch1 RAM peptide (human Notch1 residues 1754-1781)] displayed a Kd in experiment [2] of 22 nM. Take VLSTQRKRAHGVTWFPEGFRAPAAVMSR [Drosophila Notch RAM peptide (residues 1763-1790)]: the results for the Kd in experiment [3] and in experiment [4] were 166 nM and 107 nM, respectively.
